Assay results: patent US7943296B2, “Methods of screening using a natriuretic peptide receptor” (Oregon Health & Science University, priority 2005, dated 2011)

Biological target: T1, PKG (Rattus norvegicus, UniProt A9LNM8)
T1 construct: endogenous in cells; host or cells: primary neonatal rat cardiac fibroblasts transfected with 5'-FLAG sNRF fragments
T1 sequence (A9LNM8 1-671): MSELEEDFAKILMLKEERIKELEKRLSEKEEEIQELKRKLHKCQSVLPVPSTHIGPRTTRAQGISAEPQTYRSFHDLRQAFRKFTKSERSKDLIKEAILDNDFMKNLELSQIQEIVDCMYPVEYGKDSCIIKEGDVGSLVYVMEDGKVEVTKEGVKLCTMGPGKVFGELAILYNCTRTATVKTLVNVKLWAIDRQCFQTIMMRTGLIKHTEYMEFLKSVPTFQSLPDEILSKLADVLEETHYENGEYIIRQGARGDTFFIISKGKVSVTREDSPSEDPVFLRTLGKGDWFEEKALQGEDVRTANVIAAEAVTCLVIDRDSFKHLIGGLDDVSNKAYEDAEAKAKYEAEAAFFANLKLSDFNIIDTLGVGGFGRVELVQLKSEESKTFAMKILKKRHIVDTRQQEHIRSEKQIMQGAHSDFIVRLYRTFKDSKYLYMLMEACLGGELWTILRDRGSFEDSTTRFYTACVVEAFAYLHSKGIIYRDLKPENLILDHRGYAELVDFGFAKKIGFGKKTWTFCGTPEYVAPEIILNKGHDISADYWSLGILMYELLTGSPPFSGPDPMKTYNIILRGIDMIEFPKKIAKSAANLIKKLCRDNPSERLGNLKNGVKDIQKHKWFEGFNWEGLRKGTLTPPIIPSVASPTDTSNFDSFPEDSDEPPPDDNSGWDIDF
Assay: Co-immunoprecipitation of PKG with FLAG-tagged NPRA fragments in primary CFs
Type: binding
Conditions: 5'-FLAG-tagged fragment in transfected CFs, anti-FLAG M2 affinity gel
Experimental: Neonatal rat ventricular fibroblasts (CFs) were cultured from 1 to 2-day-old Harlan Sprague-Dawley rats as described previously (Simpson, Circulation Res. 56:884-94, 1985). Briefly, ventricles were dissected free from atria and quartered. Following dissociation in ADS buffer containing 1.5 mg/ml trypsin (Gibco #27250-018) and 1% DNase solution (2 mg/ml DNase type II, 150 mM NaCl) with serum neutralization the collected cells were pre-incubated in media at 37° C. for 90 minutes to allow CF attachment to the bottom of culture dishes. CFs were incubated in plating media for 48 hours, divided into 6-well culture plates or dual-well chamberslides, and grown to 50% confluency in DMEM with 10% FBS prior to use.
CFs were transiently transfected with nucleic acid molecules encoding sNRF^(806-1061), sNRF^(806-900), or sNRF^(806-860) using routine methods. Briefly, PCR-generated, 5′-FLAG epitope-tagged sNRFs were subcloned into the BamHI and EcoRI sites of pCDNA3 (Invitrogen) and sequenced to verify construction accuracy. […]
The ability of the NPRA fragments to immunoprecipitate PKG was determined in the primary CF cells transfected with the 5′-FLAG epitope-tagged NPRA fragments as follows. […] Bound antibody was detected with chemiluminescent substrate (Western Lightning ECL, PerkinElmer Life Sciences).

co-immunoprecipitation of PKG: co-immunoprecipitated PKG
Substance: sNRF^(806-900): intracellular NPRA fragment, residues 806-900, excludes the cyclase-containing domain; shortest fragment observed to associate with PKG
